One data set concerns SOST regulatory region. Description: Transactivation of SOST reporter constructs by co-transfected expression plasmids in SAOS cells. The format is cell-based, human. To be noted: factor overexpressed, 48 hrs after transfection. The protocol: To determine whether transfected Cbfa1 could drive further increases in the transcriptional activity of the SOST promoter, the Cbfa1 gene was recovered from an SAOS cDNA library and inserted it into a mammalian expression vector.
To test the effects of the two proteins Cbaf1 and MyoD on transactivitation of the 1.8 kb SOST regulatory region, the following tests were performed. SAOS cells were transfected with 500 ng of either the EcoRV fragment (nucleotides 1673 to 1814 of SEQ ID NO: 1) or 1.8 kb SOST regulatory region (nucleotides 1 to 1841 of SEQ ID NO:1) and the indicated combinations of expression plasmids for MyoD (150 ng) or Cbfa1 (30 ng, 300 ng). pBluescript (Stratagene) was used as needed to bring the DNA total to 1 μg per well, and SEAP (20 ng) was used to normalize for transfection efficiency. Cells were harvested 48 hrs after transfection. Both the SOST-luc and the EcoRV fragment were activated by Cbaf1 and MyoD.

Another data set relates to SAOS cells. Description: Luciferase reporter assay of SOST regulatory region constructs, transient transfection. Format: cell-based, human. To be noted: deletion constructs in pGL2-Basic. On the technique in general: Reporter assays use an easily measured gene product as a stand-in for the process of interest.

B1: MyoD: transcription factor overexpressed from an expression plasmid (150 ng) (protein, UniProt P15172 1-320, looked up)
Myoblast determination …: MELLSPPLRDVDLTAPDGSLCSFATTDDFYDDPCFDSPDLRFFEDLDPRLMHVGALLKPEEHSHFPAAVHPAPGAREDEHVRAPSGHHQAGRCLLWACKACKRKTTNADRRKAATMRERRRLSKVNEAFETLKRCTSSNPNQRLPKVEILRNAIRYIEGLQALLRDQDAAPPGAAAAFYAPGPLPPGRGGEHYSGDSDASSPRSNCSDGMMDYSGPPSGARRRNCYEGAYYNEAPSEPRPGKSAAVSSLDCLSSIVERISTESPAAPALLLADVPSESPPRRQEAAAPSEGESSGDPTQSPDAAPQCPAGANPNPIYQVL
Consider B1, for which, in the data set on SOST regulatory region, the “activity of the 1.8 kb SOST regulatory region reporter (SOST-luc)” value (shortened to “activity … (SOST-luc)”) is “activated” and the “activity of the EcoRV fragment reporter” value is recorded as “activated”.

B2: EcoRV to BglII fragment: about 142 nucleotides, nucleotides 1673 to 1814 of SEQ ID NO: 1, in luciferase reporter construct (nucleic acid, listed as Homo sapiens)
DNA: ATCTGAAAACCACAGCCGCCAGCACGTGGGAGGTGCCGGAGAGCAGGCTTGGGCCTTGCCTCACACGCCCCCTCTCTCTGGGTCACCTGGGAGTGCCAGCAGCAATTTGGAAGTTTGCTGAGCTAGAGGAGAAGTCTTTGGG
modifications: in luciferase reporter construct
Turning to B2, the “increase in luciferase activity over the 1.8 kb SOST regulatory region” value with SAOS cells is recorded as “almost three fold”.

B3: Cbfa1: transcription factor; gene recovered from an SAOS cDNA library, overexpressed from a mammalian expression vector (protein)
chain: MASNSLFSTVTPCQQNFFWDPSTSRRFSPPSSSLQPGKMSDVSPVVAAQQQQQQQQQQQQQQQQQQQQQQQEAAAAAAAAAAAAAAAAAVPRLRPPHDNRTMVEIIADHPAELVRTDSPNFLCSVLPSHWRCNKTLPVAFKVVALGEVPDGTVVTVMAGNDENYSAELRNASAVMKNQVARFNDLRFVGRSGRGKSFTLTITVFTNPPQVATYHRAIKVTVDGPREPRRHRQKLDDSKPSLFSDRLSDLGRIPHPSMRVGVPPQNPRPSLNSAPSPFNPQGQSQITDPRQAQSSPPWSYDQSYPSYLSQMTSPSIHSTTPLSSTRGTGLPAITDVPRRISDDDTATSDFCLWPSTLSKKSQAGASELGPFSDPRQFPSISSLTESRFSNPRMHYPATFTYTPPVTSGMSLGMSATTHYHTYLPPPYPGSSQSQSGPFQTSSTPYLYYGTSSGSYQFPMVPGGDRSPSRMLPPCTTTSNGSTLLNPNLPNQNDGVDADGSHSSSPTVLNSSGRMDESVWRPY
For B3, in the data set on SOST regulatory region, the “activity … (SOST-luc)” value is “increased activity” and the “activity of the EcoRV fragment reporter” value is listed as “increased activity”. In addition, in the data set with SOST regulatory region (listed as Cbaf1), the “activity … (SOST-luc)” value is given as “activated” and the “activity of the EcoRV fragment reporter” value is “activated”.
